Here are results for 3 molecules from publication PMC4865318 (Molecular Biology of the Cell, 2016).

Assay [1] deals with T1, MBP-UNC-15 (294–376) (C. elegans, UniProt P10567 294-376).
T1 sequence (looked up): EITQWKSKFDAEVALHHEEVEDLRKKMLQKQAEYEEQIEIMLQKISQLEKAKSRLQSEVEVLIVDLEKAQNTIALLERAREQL
The experiment in a line: BLI. (BLI is a label-free optical method that tracks binding on a fibre tip over time.)

Assay [2] addresses T2, MBP-UNC-15 (221–873) (C. elegans, UniProt P10567 221-872).
T2 sequence (looked up): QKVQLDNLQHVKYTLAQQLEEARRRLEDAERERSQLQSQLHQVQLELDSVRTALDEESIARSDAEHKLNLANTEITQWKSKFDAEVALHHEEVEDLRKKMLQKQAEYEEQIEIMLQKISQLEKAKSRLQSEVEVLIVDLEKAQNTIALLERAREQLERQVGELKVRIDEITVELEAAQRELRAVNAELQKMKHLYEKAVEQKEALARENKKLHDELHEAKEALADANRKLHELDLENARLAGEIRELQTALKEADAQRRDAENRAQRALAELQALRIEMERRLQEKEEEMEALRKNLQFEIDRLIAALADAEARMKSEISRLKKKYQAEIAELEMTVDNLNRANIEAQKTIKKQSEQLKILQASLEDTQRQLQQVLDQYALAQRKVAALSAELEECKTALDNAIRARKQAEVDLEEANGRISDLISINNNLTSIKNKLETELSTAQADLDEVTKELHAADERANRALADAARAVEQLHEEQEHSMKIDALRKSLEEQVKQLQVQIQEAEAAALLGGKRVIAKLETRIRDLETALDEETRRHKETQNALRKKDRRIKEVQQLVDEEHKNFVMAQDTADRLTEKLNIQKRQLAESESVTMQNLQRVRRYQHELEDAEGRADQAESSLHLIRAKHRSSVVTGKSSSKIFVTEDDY
The experiment in a line: far-Western.

B1: GST-UNC-89 (58–131) (domain or fragment, C. elegans, UniProt O01761 58-131, looked up)
chain: AGSESRSYPVYIAIQDYTPDKEDVEAIPLEQGQIVEVLDKKNSVRWLVRTKARPPRSGWVPGSYFETPTEFYKQ
In assay [1], B1 gave an equilibrium dissociation constant (Kd) of 1100 nM, a koff of 0.00015 s⁻¹ and an on-rate (kon) of 143 M⁻¹ s⁻¹.

B2: GST-UNC-89 (1–151) (domain or fragment, C. elegans, UniProt O01761 1-151, looked up)
chain: MASRRQKQFDRKYSSYRKFTATEDVNYSTHSSRSSYRSESLTSRTDGRGRSTSSEIIAGSESRSYPVYIAIQDYTPDKEDVEAIPLEQGQIVEVLDKKNSVRWLVRTKARPPRSGWVPGSYFETPTEFYKQRRRTREIENVSLSDEQAALV
Regarding B2, the binding result in assay [2] is “binds”.

B3: GST-UNC-89 (1–500) (domain or fragment, C. elegans, UniProt O01761 1-500, looked up)
chain: MASRRQKQFDRKYSSYRKFTATEDVNYSTHSSRSSYRSESLTSRTDGRGRSTSSEIIAGSESRSYPVYIAIQDYTPDKEDVEAIPLEQGQIVEVLDKKNSVRWLVRTKARPPRSGWVPGSYFETPTEFYKQRRRTREIENVSLSDEQAALVKRDQVYHELLRSEEEFVSSLRTCVDDYIKVLDDPEVPEAVKKNREELTLNIPELYNFHANVMLKGLNYYSDDPGKVGQTFVRLEKDFESHVEFYKQYADTLKLLEEPEIKRFFEGLSAKNDAGASSFVDHVKEIADRMVQYQNYFKEFVKYSARAHGSSKSIQKALELVTTIPQRVHDLEFTNNLKQHPGDTGKLGRIIRHDAFQVWEGDEPPKLRYVFLFRNKIMFTEQDASTSPPSYTHYSSIRLDKYNIRQHTTDEDTIVLQPQEPGLPSFRIKPKDFETSEYVRKAWLRDIAEEQEKYAAERDAISMTATSEMTASSVDFDMNASDQQSEFSEWSGSRKSSLFPG
Consider B3, for which the binding result in assay [2] is listed as “binds”.

One may read the Kd as the constant that tells how readily two partners part at equilibrium. A lower Kd goes with tighter binding. For orientation: koff means the first-order rate constant of dissociation. A lower koff goes with slow dissociation. The term kon denotes the rate constant with which the complex forms. Low readings indicate slower complex formation, high ones faster complex formation.
